Measured values taken from the supplement of paper PMC10567573.

B1: EPB41L3 (parent)
chain: SMQCKVILLDGSEYTCDVEKRSRG
B2: KCNK9 (parent)
chain: CFITLTTIGFGDYVALQTKGALQK

Variants of: B1
Assay: protein stability index of a GFP-peptide fusion (GPS, HEK-293T) (PSI 1-6); higher = more stable
Details: c terminus: a fixed tail appended
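Note: lentivirally expressed fusions sorted by FACS into six bins by GFP to DsRed ratio, PSI derived from sequencing read proportions per bin multiplied by bin number.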

Protein stability index, by site and new letter:
C4: D 4.23; F 2.03; R 4.51; N 3.07; P 3.94; H 3.46; T 3.61; Q 4.28; W 2.32; M 2.6; G 4.33; Y 2.29; S 3.78; E 4.48; V 3.17; I 2.41; L 2.04; A 3.93; K 4.37
V6: C 2.07; D 4.38; A 2.1; E 4.55
S1: G 2.37; N 2.34; E 3.32; K 1.93; C 1.74; L 2.2; A 2.86; Q 2.64; Y 1.37; D 3.27; R 1.95; T 1.92; F 2; P 3.04; W 2; I 1.93; V 1.78; H 2.19; M 3.46
Q3: I 2.44; W 1.19; M 3.35; R 2.37; L 1.49; E 3.81; F 3.2; P 3.63; C 2.16; S 2.98; T 2.48; K 2.68; N 2.76; D 3.75; H 2.83; V 2.63; A 2.9; Y 2.07; G 2.38
M2: H 2.9; K 3.24; V 2.6; G 3.36; E 4.4; P 3.42; L 2.55; Q 3.64; S 3.2; N 4.06; F 2.55; I 2.12; C 2.08; Y 1.5; R 2.72; D 3.38; A 3.24; T 3.53
K5: Q 3.06; E 3.48; A 3.27; P 3.85; C 1.77; Y 3.16; M 1.43; T 2.54; L 1.31; H 2.39; N 3.06; W 2.59; D 3.96; F 1.58; G 3.57; R 2.06; S 3.04

Variants of: B2
Assay: as above
Details: c terminus: a fixed tail appended

Protein stability index of substitutions, site by site:
L22: M 3.38; I 2.06; V 2.62; T 3.37; F 2.72; Y 2.37; W 2.21; S 3.93; E 3.67; R 2.12; G 2.86; N 1.91; A 3.37; K 2.4; C 2.29; D 4.33; Q 2.46; P 2.56
L16: F 2.53; H 2.43; T 2.26; G 1.89; W 2.27; E 3.25; D 2.23; I 2.65; R 2.74; P 2.64; C 2.03; Y 2.44; N 2.54; K 3.4; A 3.26; M 1.56; Q 2.65; V 3.73; S 1.75
Y13: I 2.31; D 2.1; K 2.24; A 3.35; W 2.93; M 3.32; V 2.57; G 2.42; H 2.07; S 2.51; N 2.04; C 3.93; Q 2.05; T 3.55; P 2.92; L 2.38; E 2.12; R 2.32
G11: V 2.31; R 3.04; N 2.99; T 1.62; Q 2.7; S 2.18; Y 3.95; L 3.22; M 1.85; P 1.99
D12: H 3.68; K 2.82; A 3.21; V 2.96; F 2.49; W 2.12; P 2.67; M 4.64; R 2.62; N 2.71; Y 3.4; T 2.49; I 3.71; G 3.42; E 2.69; Q 2.05; C 3.65
V14: I 2.86; R 2.7; W 2.71; D 2.74; M 2.02; G 2.69; N 1.86; H 2.99; P 2.82; L 3.31; Y 3.12; Q 3.43; K 1.82; A 3.25; E 2.12; T 2.64; F 3.46; S 2.06
A15: D 3.31; F 2.37; N 2.76; C 3.23; I 3.38; P 3.05; T 3.18; K 2.38; Y 2.43; E 2.93; S 4.26; Q 2.3; R 3.46; M 3.04; H 3.04; W 3.31; G 2.48; L 2.64; V 2.68
K19: V 3.26; W 2.13; L 2.36; I 2.23; D 3.22; A 3.43; N 4.09; Y 3.38; G 1.24; P 4.04; S 2.11; T 4.24; R 3.19; E 2.46; Q 2.16; H 1.98; F 1.95
Q17: V 3.42; G 2.38; L 2.23; I 2.27; Y 3.01; K 2.82; C 3.88; N 2.33; M 2.23; P 3.82; H 3.57; W 2.58; T 2.08; D 2.17; R 2.83; E 2.76; F 3.02
T18: A 2.8; F 1.72; H 3; P 1.64; N 2.42; Y 3.26; W 3.1; L 3.51; C 3.43; K 1.58; S 2.27; M 2.49; R 2.64; E 2.28; Q 2.63; D 1.76; I 2.12
A21: H 3.21; S 2.43; I 2.44; M 1.99; K 3.05; V 2.29; P 2.97; D 2.88; F 3.44; R 3.3; T 2.56; C 3.22; N 2.39; W 3.01; E 3.6; L 3.54; G 2.1; Q 2.21
G20: F 3.39; R 3.65; N 3.17; D 3.25; H 2.6; I 2.58; P 2.55; C 3.1; Q 3.38; S 3.74; T 5.14; Y 2.54; E 3.59; W 3.87; A 3.49
K24: N 3.29; M 2.88; S 3.33; G 2.28; C 2.9; L 2.51; I 2.09; H 2.47; E 3.56; F 3.25; A 2.85; D 3.71; Y 3.16; P 2.96; V 3.03; T 3.42; Q 2.33
Q23: S 2.2; K 2.96; R 1.72; H 3.06; A 3.76; N 2.43; L 3.52; W 2.73; P 2.14; E 1.94; G 3.46; I 3.28; F 2.87; V 4.51; D 2.98; T 3.26; Y 2.42; C 2.6
